Assay results from patent US20240150475A1 (Molecular Partners, published 2024).

Columns and labels:
[1] = molecular target: T1, truncated CD123 target (D2/D3 domains), D2-D3-hCD123 (human, UniProt P26951 101-305); assay: HTRF, purified DARPin protein with truncated D2-D3-hCD123, hIgG-d2 and anti-His-Tb
T1 construct: domain: D2/D3; Bought from Evitria; Detected with hIgG-d2, so it probably carries an Fc tag; also called truncated target (D2-D3-hCD123)
T1 sequence (looked up): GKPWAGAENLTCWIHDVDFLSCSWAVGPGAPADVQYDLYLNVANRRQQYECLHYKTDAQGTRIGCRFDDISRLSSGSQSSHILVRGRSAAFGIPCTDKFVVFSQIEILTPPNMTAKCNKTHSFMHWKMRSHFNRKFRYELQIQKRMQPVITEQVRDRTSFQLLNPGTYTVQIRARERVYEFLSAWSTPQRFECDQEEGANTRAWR
Source text: (§1) The CD123 epitope bound by CD123-specific ankyrin repeat proteins of the invention was investigated using truncated CD123 target protein as well as competition ELISA and HTRF against the benchmark control molecule flotetuzumab-similar (CD3-CD123 specific DART®, purchased from Evitria) and the natural ligand IL-3 (purchased by Peprotech), First, full-length (NTD/D2/D3 domains) and truncated (D2/D3 domains) CD123 targets (purchased from Evitria) were applied in an HTRF binding assay in which they were incubated with DARPin® protein #1 and binding was detected by using either the HTRF reagents Anti 6His-d2 and Streptavidin-Tb for full-length CD123 or hIgG-d2 and anti-His-Tb for truncated CD123. […] The excitation of the reaction was measured at 340 nm and emission at 665 nm and the background at 340 nM and 620 nM respectively. […] Binding was detected by using either the HTRF reagents Anti 6His-d2 and Streptavidin-Tb for full-length CD123 or hIgG-d2 and anti-His-Tb for truncated CD123 target.

[2] = molecular target: T2, biotinylated extracellular domains of human CD123 with C-terminal Fc tag and Avi tag (bio.hCD123-Fc(kih)-Avi) (human, UniProt P26951 19-303, biotinylated with BirA-GST (Avi tag)); assay: HTRF, full-length biotinylated hCD123-Fc(kih)-Avi
T2 construct: Bought from Evitria; the second Fc chain and the number of CD123 arms are not described; also called biotinylated hCD123; recombinant human CD123 target; not shown: Avi tag
T2 sequence: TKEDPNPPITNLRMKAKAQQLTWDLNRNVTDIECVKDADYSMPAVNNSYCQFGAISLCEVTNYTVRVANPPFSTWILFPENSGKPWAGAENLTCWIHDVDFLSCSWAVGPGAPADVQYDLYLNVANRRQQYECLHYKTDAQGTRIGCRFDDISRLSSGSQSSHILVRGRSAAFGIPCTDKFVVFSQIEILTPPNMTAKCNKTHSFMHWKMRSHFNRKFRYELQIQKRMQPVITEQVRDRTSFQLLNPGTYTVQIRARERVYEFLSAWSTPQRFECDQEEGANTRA
Source text: as §1

B1: DARPin® protein #20 (non-binding DARPin molecule) (designed binder)
chain: DLGKKLLEAARAGQDDEVRELLKAGADVNAKDKDGYTPLHLAAREGHLEIVEVLLKAGADVNAKDKDGYTPLHLAAREGHLEIVEVLLKAGADVNAQDKSGKTPADLAADAGHEDIAEVLQKAA
notes: Control
**Q.** What does the source list for B1?
**A.** binding result [1]: no binding; binding result [2]: no binding
